{
  "source": "paper PMC9676983",
  "test_in_all_cases": "SEC",
  "key": {"α-synuclein A30P": {"molecular_target": "α-synuclein A30P (UniProt P37840)"}, "α-synuclein A53T": {"molecular_target": "α-synuclein A53T (UniProt P37840)"}, "α-synuclein E46K": {"molecular_target": "α-synuclein E46K (UniProt P37840)"}},
  "data": [
    {"substance": "α-synuclein A30P (from UniProt P37840 1-140) (natural protein)", "values": [
      {"measurement": "fraction of oligomers", "setting": "α-synuclein A30P", "result": 71.6, "unit": "%"}
    ]},
    {"substance": "α-synuclein A53T (from UniProt P37840 1-140) (natural protein)", "values": [
      {"measurement": "fraction of oligomers", "setting": "α-synuclein A53T", "result": 87.8, "unit": "%"}
    ]},
    {"substance": "α-synuclein E46K (from UniProt P37840 1-140) (natural protein)", "values": [
      {"measurement": "fraction of oligomers", "setting": "α-synuclein E46K", "result": 92.1, "unit": "%"}
    ]}
  ]
}
